# Residue numbers refer to the chain shown, from its start.
# B1: P17-8E12 IgG (antibody, V domains shown)
# VH: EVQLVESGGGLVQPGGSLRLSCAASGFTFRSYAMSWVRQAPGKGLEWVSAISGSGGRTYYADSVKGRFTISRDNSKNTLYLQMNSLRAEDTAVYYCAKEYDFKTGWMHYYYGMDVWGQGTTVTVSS
# VL: QSVLTQPPSVSGAPGQRVTISCTGSSSGYDVHWYQQLPGRAPKLLIYGSNNRPSGVPDRFSGSNSGTSASLAITGLQAEDEADYYCQSYDSSLNAIFGGGTKLTVL
# notes: IgG
# B2: P17-11F4 IgG (antibody, V domains shown)
# VH: EVQLVESGGGLVQPGGSLRLSCAASGFTFKDYAMSWVRQAPGKGLEWVSALSGSGGATYYADSVKGRFTISRDNSKNTLYLQMNSLRAEDTAVYYCAKEMDFRYGWMHYYYGMDVWGQGTTVTVSS
# VL: B1 VL
# notes: IgG
# B3: 71 anti-GPC3 scFv-Fc (Fc fusion)
# VH: QVQLVESGGGVVQPGRSLRLSCAASGFTFSSYAMHWVRQAPGKGLEWVAVISYDGSNKYYADSVKGRFTISRDNSKNTLYLQMNSLRAEDTAVYYCARGGDGYNAAFDIWGQGTMVTVSS
# VL: NFMLTQPPSVSESPGKTVTISCTGSSGSIASNYVQWYQQRPGSAPTTVIYEDNQRPSGVPDRFSGSIDSSSNSASLTISGLKTEDEADYYCQSYDSSKHYVFGTGTKVTVL
# notes: scFv-Fc, human IgG1 constant regions
# B4: P19 anti-GPC3 scFv-Fc (Fc fusion)
# VH: EVQLVESGGGLVKPGGSLRLSCAASGFTFSDYYMSWIRQAPGKGLEWVSYISSSGSTIYYADSVKGRFTISRDNAKNSLYLQMNSLRAEDTAVYYCASVYMDVWGKGTTVTVSS
# VL: EIVMTQSPGTLSLSPGERATLSCRASQTVSSSSLAWYQQRPGQAPRLLIYETSSRATGIPDRFSGSGSGTDFTLTISRLEPEDFAIYYCQQKGDSGYTFGQGTKVEIK
# notes: as for B3
# B5: P17-15D5 Fab (Fab, V domains shown)
# VH: B2 VH with K30A, D31N, A50D, L51V, G53A, G56V, A57G, M100V, R103K, Y104L
# VL: B1 VL
# notes: Fab format
# B6: P17 WT Fab (Fab, V domains shown)
# VH: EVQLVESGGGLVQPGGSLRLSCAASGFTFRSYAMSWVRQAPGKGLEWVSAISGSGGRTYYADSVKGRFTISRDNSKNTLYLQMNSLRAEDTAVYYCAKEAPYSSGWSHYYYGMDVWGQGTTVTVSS
# VL: B1 VL
# notes: Fab format, lambda light chain (detected with an anti-Lambda antibody)
# B7: P17-16A11 Fab (Fab, V domains shown)
# VH: B2 VH with K30D, D31R, A50S, G53A, G56S, A57G, M100Y, R103S
# VL: B1 VL
# notes: Fab format
# B8: P17-13G2 Fab (Fab, V domains shown)
# VH: B2 VH with K30G, D31E, A50G, L51M, G56D, A57G, F102Y, R103Q, Y104L
# VL: B1 VL
# notes: Fab format
# B9: P17-16E6 Fab (Fab, V domains shown)
# VH: B2 VH with K30R, D31K, A50S, G53A, G56S, M100A, F102Y, R103S, Y104M
# VL: B1 VL
# notes: Fab format
# B10: P17-11F4 Fab (Fab, V domains shown)
# VH: B2 VH
# VL: B1 VL
# notes: Fab format
# B11: P17-16A1 Fab (Fab, V domains shown)
# VH: B2 VH with D31R, A50S, L51V, G53S, G56T, A57G, M100Y, F102Y, R103G, Y104L
# VL: B1 VL
# notes: Fab format
# B12: P17-8E12 Fab (Fab, V domains shown)
# VH: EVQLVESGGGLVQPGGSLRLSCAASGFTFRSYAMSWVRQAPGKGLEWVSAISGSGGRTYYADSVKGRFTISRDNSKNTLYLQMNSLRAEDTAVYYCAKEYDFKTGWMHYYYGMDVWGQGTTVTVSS
# VL: B1 VL
# notes: Fab format
# B13: P17-15F8 Fab (Fab, V domains shown)
# VH: B2 VH with K30G, D31N, A50G, L51V, G56D, A57G, M100Y, R103G, Y104L
# VL: B1 VL
# notes: Fab format
# B14: P17-13F3 Fab (Fab, V domains shown)
# VH: B2 VH with K30E, D31G, A50N, L51V, G56D, A57G, M100Y, F102Y, R103K, Y104T
# VL: B1 VL
# notes: Fab format
# B15: P10 anti-GPC3 scFv-Fc (Fc fusion)
# VH: EVQLVQSGAEVKKPGSSVKVSCKASGGTFRSYAISWVRQAPGQGLEWMGGIIPIFGTANYAQKFQGRVTITADELTSTAYMELSSLRSEDTAVYYCASRIGQWPTPFDYWGQGTLVTVSS
# VL: QSVLTQPPSVSVAPGKTARITCGGNNIGSKSVHWYQQKPGQAPVLVIYYDSDRPSGIPERFSGSNSGNTATLTISRVEAGDEADYYCQVWDSSSDHPVFGGGTKLTVL
# notes: as for B3
# B16: P3 anti-GPC3 scFv-Fc (Fc fusion)
# VH: QVQLQQSGPGLVKPSQTLSITCAISGDSVSSNSAAWNWIRQSPSRGLEWLGRTYYRSKWYNDYAVSVKSRITINPDTSKNQFSLQLNSVTPEDTAVYYCASSYYNGGYFDYWGQGTLVTVSS
# VL: EIVLTQSPATLSVSPGGRATLSCRASQSVTTNLAWYQQKPGQAPRLLIYGASTRVTGVPRRFSGSGSGTDFTLTISSLQSEDSAVYYCQQYSGWGGFGGGTKVDIK
# notes: as for B3
# B17: P20 anti-GPC3 scFv-Fc (Fc fusion)
# VH: B4 VH
# VL: B15 VL with Q1S, S2Y, V3E, K16Q, I47V, Y49D, I57V, S92N, P97Q
# notes: scFv-Fc, human IgG1 constant regions; The VH as printed is the same as that of P19
# B18: P17 WT IgG (antibody, V domains shown)
# VH: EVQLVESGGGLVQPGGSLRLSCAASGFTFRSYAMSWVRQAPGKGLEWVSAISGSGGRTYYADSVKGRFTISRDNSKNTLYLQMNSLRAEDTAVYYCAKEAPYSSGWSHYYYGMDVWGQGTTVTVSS
# VL: B1 VL
# notes: IgG
# B19: P17-16A1 IgG (antibody, V domains shown)
# VH: B2 VH with D31R, A50S, L51V, G53S, G56T, A57G, M100Y, F102Y, R103G, Y104L
# VL: B1 VL
# notes: IgG
# B20: P17-16E6 IgG (antibody, V domains shown)
# VH: B2 VH with K30R, D31K, A50S, G53A, G56S, M100A, F102Y, R103S, Y104M
# VL: B1 VL
# notes: IgG
# B21: P17-16A11 IgG (antibody, V domains shown)
# VH: B2 VH with K30D, D31R, A50S, G53A, G56S, A57G, M100Y, R103S
# VL: B1 VL
# notes: IgG
# Target: T1, Glypican 3 Protein, Human, Recombinant (His Tag) (Sino Biological, Cat #10088-H08H) (human, UniProt P51654 25-559)
# T1 construct: Bought recombinant protein; also called Hu-GPC3 (10088-H08H); human GPC3; not shown: His tag
# T1 sequence (P51654 25-559 limits assumed): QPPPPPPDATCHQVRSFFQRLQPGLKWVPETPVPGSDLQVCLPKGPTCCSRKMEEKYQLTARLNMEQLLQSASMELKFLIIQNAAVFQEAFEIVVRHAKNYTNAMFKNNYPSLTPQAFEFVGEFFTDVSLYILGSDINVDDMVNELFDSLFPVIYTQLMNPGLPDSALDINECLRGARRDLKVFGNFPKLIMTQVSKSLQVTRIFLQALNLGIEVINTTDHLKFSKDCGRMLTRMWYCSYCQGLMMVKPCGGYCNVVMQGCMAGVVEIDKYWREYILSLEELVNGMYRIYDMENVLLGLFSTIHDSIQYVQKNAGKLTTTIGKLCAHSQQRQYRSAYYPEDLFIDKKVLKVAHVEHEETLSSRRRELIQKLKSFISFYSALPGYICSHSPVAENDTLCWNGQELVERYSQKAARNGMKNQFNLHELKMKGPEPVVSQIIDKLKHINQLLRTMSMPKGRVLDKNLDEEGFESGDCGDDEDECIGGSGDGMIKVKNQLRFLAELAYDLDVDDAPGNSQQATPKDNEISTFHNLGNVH
# Assay: Octet QKe BLI, ratio of KDs against P17 WT
row,Binder,fold lower KD than P17 WT [fold]
1,B1,6000
2,B2,6000

# Target: T1, Glypican 3 Protein, Human, Recombinant …
# Assay: sandwich-style epitope binning, Octet AHC biosensor, 300 nM human GPC3
row,Binder,binding result
1,B3,binds
2,B4,binds

# Target: T2, Fc-tagged human Glypican 3 protein (Acro Biosystems, cat #GP3-H5258) (human, UniProt P51654 25-559)
# T2 construct: Bought; also called recombinant human GPC3; not shown: Fc tag
# T2 sequence (P51654 25-559 limits assumed): as above
# Assay: ELISA, Fab titrated on coated Fc-tagged human GPC3, anti-Lambda HRP detection
row,Binder,EC50 [ng/mL]
1,B5,9
2,B6,191
3,B7,8.7
4,B8,8.4
5,B9,9.6
6,B10,9.5
7,B11,9.3
8,B12,9.6
9,B13,8.9
10,B14,11.7

# Target: Cy-GPC3 (GP3-C5225) (Cy (so in the source))
# Assay: Octet QKe BLI, antibody on AHC probe, antigen in solution, 1:1 fit
row,Binder,Kd [nM]
1,B15,1.28
2,B16,5.45

# Target: T1, Glypican 3 Protein, Human, Recombinant …
# Assay: as above
row,Binder,Kd [nM]
1,B15,2.85
2,B16,20.1
3,B17,100

# Target: T1, Glypican 3 Protein, Human, Recombinant …
# Assay: Octet QKe BLI, IgG on AHC probe, GPC3 (Sino Biological) in solution, 1:1 fit
Binder,Kd [nM],koff [s⁻¹],kon [M⁻¹ s⁻¹]
B18,5.99,0.000833,139000
B19,0.00117,2.51e-07,215000
B20,0.00133,2.76e-07,208000
B1,< 0.001,1.79e-07,223000
B21,0.00103,1.87e-07,182000
B2,< 0.001,1.83e-07,188000

# Target: T3, GPC3 expressed on the cell surface of HepG2, Huh7 and Hep3B cells (human, UniProt P51654 25-554)
# T3 construct: Endogenous GPC3 of human liver tumour cell lines; also called Glypican 3 protein on the cell surface; endogenously expressed GPC3
# T3 sequence (P51654 25-554 limits assumed): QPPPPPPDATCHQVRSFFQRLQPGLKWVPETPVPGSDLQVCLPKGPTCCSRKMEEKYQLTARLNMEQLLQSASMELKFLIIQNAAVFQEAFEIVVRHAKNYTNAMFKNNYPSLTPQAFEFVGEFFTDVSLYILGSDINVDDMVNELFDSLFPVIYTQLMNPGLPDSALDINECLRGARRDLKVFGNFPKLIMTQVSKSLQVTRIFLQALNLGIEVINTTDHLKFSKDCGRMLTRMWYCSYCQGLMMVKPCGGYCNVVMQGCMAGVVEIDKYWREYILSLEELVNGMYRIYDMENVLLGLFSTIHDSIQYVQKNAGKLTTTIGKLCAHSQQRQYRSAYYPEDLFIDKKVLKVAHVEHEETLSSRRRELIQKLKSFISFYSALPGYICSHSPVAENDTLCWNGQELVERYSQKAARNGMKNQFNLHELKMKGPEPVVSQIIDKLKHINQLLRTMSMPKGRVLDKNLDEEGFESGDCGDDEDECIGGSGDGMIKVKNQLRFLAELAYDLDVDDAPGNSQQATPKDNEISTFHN
# Assay: flow cytometry, Fab titrated on Hep3B cells
row,Binder,EC50 [ng/mL]
1,B5,9.7
2,B6,21.3
3,B7,8.3
4,B8,13
5,B9,8.5
6,B10,9.9
7,B11,7.4
8,B12,8.3
9,B13,10.4
10,B14,14.8
